The values that follow come from US20250171549A1.

Values joined by “and” are separate entries in the source; they are usually repeats but may differ in a detail not shown here. Identical values can stand only once.

Assay [1] deals with P_1-12 construct (truncated N-terminal peptide of human CCR8 fused to V5 tag, chicken albumin, FLAG tag, BAP and H3G) (human). Description: flow cytometry, construct on streptavidin beads. A general note: A flow cytometer gives signals particle by particle.
Assay [2] addresses P_1-35 construct (full-length N-terminal peptide of human CCR8 fused to V5 tag, chicken albumin, FLAG tag, BAP and H3G) (human). Description: flow cytometry, construct on streptavidin beads.
The target in assay [3] is P_13-24 construct (truncated N-terminal peptide of human CCR8 fused to V5 tag, chicken albumin, FLAG tag, BAP and H3G) (human). As to the kind of experiment: flow cytometry, construct on streptavidin beads.
For assay [4], the target named is P_7-18 construct (truncated N-terminal peptide of human CCR8 fused to V5 tag, chicken albumin, FLAG tag, BAP and H3G) (human). Description: flow cytometry, construct on streptavidin beads.
Assay [5] concerns the target P_19-30 construct (truncated N-terminal peptide of human CCR8 fused to V5 tag, chicken albumin, FLAG tag, BAP and H3G) (human). As to the kind of experiment: flow cytometry, construct on streptavidin beads.
Assay [6] concerns the target T1, P_25-35 construct (truncated N-terminal peptide of human CCR8 fused to V5 tag, chicken albumin, FLAG tag, BAP and H3G) (human).
T1 sequence (chain, biotinylated in vivo at BAP): CDAELIQTNGK
Description: flow cytometry, construct on streptavidin beads.

For assay [7], the target named is human CCR8 (human) (UniProt P51685). As to the kind of experiment: flow cytometry, primary human Tregs (PBMC, CD4+CD25+CD127- gate).
Chain of human CCR8 (human) (P51685 whole entry): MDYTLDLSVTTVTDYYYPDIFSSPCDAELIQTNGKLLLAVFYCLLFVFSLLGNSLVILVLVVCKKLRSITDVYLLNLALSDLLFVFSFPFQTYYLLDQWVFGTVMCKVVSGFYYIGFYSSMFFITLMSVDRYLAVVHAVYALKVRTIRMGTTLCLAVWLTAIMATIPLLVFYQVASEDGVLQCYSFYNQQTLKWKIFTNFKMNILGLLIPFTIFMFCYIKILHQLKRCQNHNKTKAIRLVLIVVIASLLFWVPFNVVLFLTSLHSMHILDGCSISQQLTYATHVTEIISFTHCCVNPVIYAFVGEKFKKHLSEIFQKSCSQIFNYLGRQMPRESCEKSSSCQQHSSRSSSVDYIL
The target in assay [8] is cynomolgus monkey CCR8 (comprising threonine at position four) (cynomolgus monkey). Description: flow cytometry, primary cynomolgus Tregs (PBMC, CD4+CD25+CD127- gate).
Chain of cynomolgus monkey CCR8 (comprising threonine at position four) (cynomolgus monkey) (O97665 other isoform, or with tags, fused parts or gaps): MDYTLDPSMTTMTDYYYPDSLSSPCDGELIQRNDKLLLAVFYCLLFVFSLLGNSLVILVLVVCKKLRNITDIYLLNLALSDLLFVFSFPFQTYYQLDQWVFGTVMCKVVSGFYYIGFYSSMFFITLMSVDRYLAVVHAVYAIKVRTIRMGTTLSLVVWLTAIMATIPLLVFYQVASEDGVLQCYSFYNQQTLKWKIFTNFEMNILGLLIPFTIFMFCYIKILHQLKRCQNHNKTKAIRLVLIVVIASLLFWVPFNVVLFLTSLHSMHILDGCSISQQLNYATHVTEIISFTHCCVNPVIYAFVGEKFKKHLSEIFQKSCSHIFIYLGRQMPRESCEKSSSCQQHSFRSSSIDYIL
For assay [9] the target is unchanged. As to the kind of experiment: flow cytometry, primary cynomolgus Tregs, purified antibody 20 ug/ml.
In assay [10] the target is murine CCR8 (murine) (UniProt P56484). As to the kind of experiment: flow cytometry, HEK293T transfectants, 5 ug/mL.
Chain of murine CCR8 (murine) (P56484 whole entry): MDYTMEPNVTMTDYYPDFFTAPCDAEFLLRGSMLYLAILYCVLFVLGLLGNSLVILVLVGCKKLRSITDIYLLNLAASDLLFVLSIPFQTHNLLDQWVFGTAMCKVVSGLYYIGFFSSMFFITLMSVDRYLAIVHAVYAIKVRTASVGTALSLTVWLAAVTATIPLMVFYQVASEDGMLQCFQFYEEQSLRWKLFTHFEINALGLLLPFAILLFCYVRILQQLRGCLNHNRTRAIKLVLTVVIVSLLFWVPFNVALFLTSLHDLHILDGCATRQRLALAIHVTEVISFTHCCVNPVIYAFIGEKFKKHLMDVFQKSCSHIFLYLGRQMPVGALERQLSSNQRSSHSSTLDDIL
Assay [11] deals with rat CCR8 (rat). Description: flow cytometry, HEK293T transfectants, 5 ug/mL.
Chain of rat CCR8 (rat) (P56484 other isoform, or with tags, fused parts or gaps): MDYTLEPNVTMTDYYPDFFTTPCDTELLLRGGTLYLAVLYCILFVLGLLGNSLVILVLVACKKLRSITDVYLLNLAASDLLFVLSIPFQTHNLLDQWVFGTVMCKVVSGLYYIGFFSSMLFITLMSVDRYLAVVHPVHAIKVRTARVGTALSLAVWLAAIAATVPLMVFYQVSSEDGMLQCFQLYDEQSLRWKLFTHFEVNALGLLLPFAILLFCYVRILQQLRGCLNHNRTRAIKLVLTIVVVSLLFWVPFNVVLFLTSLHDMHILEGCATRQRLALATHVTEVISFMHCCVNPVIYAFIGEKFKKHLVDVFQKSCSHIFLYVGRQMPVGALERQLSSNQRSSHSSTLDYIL
In assay [12] the target is human CCR8 with an A27G point mutation (human) (UniProt P51685). As to the kind of experiment: flow cytometry, HEK293T transfectants, 5 ug/mL.
Chain of human CCR8 with an A27G point mutation (human) (P51685 whole entry A27G): as the sequence (P51685 whole entry) above, with A27G counted along it
In assay [13] the target is human CCR8 (human) (UniProt P51685). Description: flow cytometry, HuT78 cells, 5 ug/mL.

Chain of anti-human CCR8 antibody clone 433H (BD 747578) (VH): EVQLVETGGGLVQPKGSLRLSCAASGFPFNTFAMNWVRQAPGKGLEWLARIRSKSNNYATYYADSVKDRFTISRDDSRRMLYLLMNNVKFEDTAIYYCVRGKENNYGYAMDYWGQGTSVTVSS
Chain of anti-human CCR8 antibody clone 433H (BD 747578) (VL): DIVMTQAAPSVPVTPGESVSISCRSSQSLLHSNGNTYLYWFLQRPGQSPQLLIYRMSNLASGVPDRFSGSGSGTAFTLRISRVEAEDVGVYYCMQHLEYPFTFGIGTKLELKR
Chain of P_1-35 construct (full-length N-terminal peptide of human CCR8 fused to V5 tag, chicken albumin, FLAG tag, BAP and H3G) (human) (chain, as listed by the source): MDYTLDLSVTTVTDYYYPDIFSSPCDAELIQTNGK

As to “anti-V5 antibody (clone SV5-Pk1; AbD Serotec, MCA 1360)”, the Median Fluorescence of Sample/Median Fluorescence of Negative Control in assay [1] turned out to be 1090; in [2], 953; in [3] it was 1300; in assay [4], 1090; in [5] it was 1020; in assay [6] it was 1090.
As to Cyno IgG2a (antibody), the CCR8+CD127-CD25+CD4, % positive in assay [7] is 0% and 0.1%; in assay [8], 0.3% and 0.8%.
As for “anti-human CCR8 antibody clone 433H (BD 747578)”, the Median Fluorescence of Sample/Median Fluorescence of Negative Control in assay [1] came out at 0.9; in [2], 290; in assay [3], 300; in assay [4], 0.9; in assay [5], 0.9; in [6] it was 0.9. The CCR8+CD127-CD25+CD4, % positive in assay [9] is 66.2% and 63.7%.
As to “anti-FLAG antibody (clone M2, Sigma F3165/F1804)”, the Median Fluorescence of Sample/Median Fluorescence of Negative Control is 596 in assay [1]; 522 in assay [2]; 628 in [3]; 589 in assay [4]; 590 in assay [5]; 582 in assay [6].
In the case of SA214G2 (antibody), the values for the binding by FACS (read-out not named) in [10] and in [11] were 56800 and 1590, respectively.
For “anti-human CCR8 antibody clone L263G8 (BioLegend, 360602)”, the Median Fluorescence of Sample/Median Fluorescence of Negative Control in assay [1] turned out to be 0.9; in assay [2], 751; in [3], 285; in assay [4], 0.9; in [5], 0.9; in assay [6], 0.9. The binding by FACS (read-out not named) was 41400 in assay [12] and 4500 in assay [13].
Turning to Hu IgG2b (antibody), the CCR8+CD127-CD25+CD4, % positive in assay [7] was 1.5% and 0% and 1.9%; in assay [8], 11.9% and 11.3%.
As for Negative control (Table 6), the Median Fluorescence of Sample/Median Fluorescence of Negative Control is 1 in assay [1]; 1 in assay [2]; 1 in assay [3]; 1 in assay [4]; 1 in assay [5]; 1.1 in assay [6].
